This is an account of results in the DeepSol protein solubility set.

The nature of the series: soluble on expression in E. coli; label from the status in PepcDB or PDB records.
Turning to “MILMAIGLLMGSYYAVEWYKGKSSAQELTNEEIKSFKNIQHNQLPYETLVTSQVPSSQTEHKEGEKVAMLNIPKLKKKFSIYWGADDATLKKGVGMFVSDVTTTPSGGGHTVLSGHRDTVFTDLGQLKEKDTLVLEYDNKTYTYEIQKIWITHADDRTVIIKKEEPILTLTTCYPFDYIGDAPDRYIIEAKLTGSYSK”, the “soluble on expression in E. coli” value was “not soluble”. As for “MINEHYIPQAVILANGEYPAHELPLRLLAEAQFVVCCDGAANEYISRGHTPDVIIGDGDSLLPEYKKRFSSIILQISDQETNDQTKAVHYLQSKGIRKIAIVGATGKREDHTLGNISLLVEYMRSGMEVRTVTDYGTFIPVSDTQSFASYPGQQVSIINFGAKGLKAEGLFYPLSDFTNWWQGTLNEAIADEFTIHCTGEYLVFLAY”, the “soluble on expression in E. coli” value is given as “soluble”. Under “MINIETPTYYTATKKYELSFPSLETDLDADVVVIGGGFSGINTALELAEHGITDIVVLEARHLGFGGTGRNGGQIMAGIGHDLEKIRKDVGEDGLRAIFEISDLGADIIKGRIEKYAIDADFCHGYGYMGFNARQAKTLQAWEKEFRSLGSPHEIRYLHGAEVRQIIGSDAYGSALLHMGGGHVHSLNLLLGEAKALAGLGARIFEYSPALEVQYGERIRVRTAKGSVTANKLLWACDSFLNRLEPELHRTTINTYAFQMMTEPLPDELIQRISPIRGAYSDIRPVIDYYRVTNENRLLFGAATPFVERIPGDLKAWNRKLMLKIFPYLEHVRIDLAWGGPMACSANLFPQIGSLSGRPNAFFVQGYSGFGVTPSHIVCKVLAEGMSEGSARYDLLSSVRRIPIHGKDHFRPLLLSAGKTWHQLSGYWNGRR” stands “not soluble”; under “MINSSEGKSDNKIIEKATQILSKYPLCDSCLGRCFARLGYGLENKERGRAIKISLMLILDEKIKNHEIGDLSSIKRIMENLGPIAEKWYKLYFSSEFHSHPCYLCQNKIEDIKEDFSDKAFKLLSGLGVKSYVLGVELDEETKKKESKIIEEFTLMYYESIKHEIKREVGKTLSKRGYPPNMDNPEVEIVYRLSDLQVFIISKNIRTFYVYNRLNRNLPISSWFSKQGNEGLNTLLQRKIVFAFSEPTTVRILADYPIVIENEGRDKIDVGGYYIFKVMTVGKKELQAISAAKPTMRKYRVTVYSTSSLSDAIRVYGNIYDLYIDAKSFSELNEKLSKLKSQYEIIVLSVDLIDVKGRIKDIIENYLKSFLEHHHHHH”, “not soluble”. Regarding “MIPVKFKGATFGRLVKLEFEILRLGELKIDDISEFNTKDIKLEIRATSSGIKLIGVWEGDISEVGEAIKRALDESMKLRERLLRKMRNKVERIRKTLTEMGFSEESIGYGDAIRFTKRIGEYEVAIVVSSRDDIVRVEVYGGNKKLLAPELEAFFESVDIEELEIYDVDEDGREERVVINLELPKTDEKPEKRIIEAVKVLENILMA”, the “soluble on expression in E. coli” value was “soluble”. Take “MIQFKDSYKHYGANGREVTALQPLNLEIRAGEVFGIIGHSGAGKSTMLRMINRLEEPSGGHLLINGQDITVLDRMGLRALRRQIGMIFQHFNLLSSYTVAGNVAFPLKLTGASDAKINARVAELLAWVGLEAHANTYPAQLSGGQKQRVGIARALATRPQILLCDEVTSALDPQTTSTVLQLLARINRELGLTIVLITHEMDVIRRICDRVAVLDTGRLVEIGLVTDVFLHPQHPTTRSFVMETEHIDTSALDQDFALVKGRIVRLTFIGTDTYLPLLGRVARETGVDYNILSGRIDRIKETPYGQLTVALSGGDPVAAQAAFAAAGIHIEELRA”: the “soluble on expression in E. coli” value is listed as “not soluble”. With “MIQMSSNDSSEVIRQCLQVLESITSDSSVPRNIRRSVNEIMDILNNESEPLFLRAASSISILEDISNDPNLPLHTRTLIWNLSSQLETIPVDE”, the “soluble on expression in E. coli” value is “not soluble”. With “MIRAVFFDFVGTLLSVEGEAKTHLKIMEEVLGDYPLNPKTLLDEYEKLTREAFSNYAGKPYRPIRDIEEEVMRKLAEKYGFKYPENFWEIHLRMHQRYGELYPEVVEVLKSLKGKYHVGMITDSDTEYLMAHLDALGIKDLFDSITTSEEAGFFKPHPRIFELALKKAGVKGEEAVYVGDNPVKDCGGSKNLGMTSILLDRKGEKREFWDKCDFIVSDLREVIKIVDELNGQ”, the “soluble on expression in E. coli” value was “soluble”.

Consider “MIRFARPKPIIDSVSYNLLQKCYASGTPKGKSKLKTGQSLKRNKLTIKKGGGNGGGRGGDEVDKGKGRISDQCINAPCPVRYLRPKEREREARREKLGLISKARQKEIDFQKKGGSFTMGVTTAPMRIGTPGLDYISLGIFTEDELPKYKVTVEDGIRLAKEYSRVLMREHRARRVAEISLMKMRNAAVEALPENLKKAALVRDLTPFPVSRGTVRLLHLLKGIWRGL”, for which the “soluble on expression in E. coli” value was “soluble”. For “MIRFCSLYSGSSGNAIFLSTGKTKILIDAGLSGKKITEALVSIGEKPSELSAILVSHEHSDHIKGAGIISRKYDVPIYANENTWAAMENLIGPVSVKNKMYFNTGREFEIGDVIINPFPIPHDAVEPVGFNFFVENSKITTATDIGHMNRELLEYIEGSDFLLIESNHDIEMLKVGPYPWPLKKRILGDKGHLSNEMAGKVVAHLAERGTRCFMLGHLSKENNFPELAYETVRNILKERNIDIERDIKLSVALRDKVGQVVEILEHHHHHH”, the “soluble on expression in E. coli” value is recorded as “not soluble”.

For “MIRGLRQIEPYVAGVQPAERKMIKLNTNENAYGASPKVREALANFDVDNLRKYSTLEQADLRAALANNLKVKPEQLMIANGSDDVLSIAFLAFFNNDEPVLFPDLTYGFYKVWADLYRVNYHEIPLAEDFTINTEDYLADNGGIILTNPNAPTGIYKPLNEIEKLLKANQDTVVIIDEAYISFGGQSALSLLNKYNNLVITRTFSKDAALAGLRVGYAIANEPLIAVMNAVKHSINPYSVDLLAERLATAAVEDWSYYQENAKKIQKTRAWFSEQLVKQGFDVLPSQANFVLTKPHDLATAKLFEELEARKIYVRYFPKVERIKDYLRISMGTQEEMEEVVKAIEEIRG”, the “soluble on expression in E. coli” value is reported as “soluble”. In the case of “MIRKALLFVEKNETWKKELQIAKSVETVRKRLGQSNLNACSPRKVPLLTVKHVAKQFEYDKIHKDGPVEKWRNIFWSDESKIVLLGGKGSRSYVRRPPRTEYNPRYTFKKFKNCLKGWAFCCLEHHHHHHH”, the “soluble on expression in E. coli” value is “not soluble”. On to “MIRQLSLKDYEGVAGSALIDEIRSLGESLQGYNVRHINSTIIGGGVAEILSSLVPLMEDVGLTVNWEVLAGTTEFFHTTKLFHNGMHGQPVNITGEMLENYLAIAQKNQNLLDGDADLVVIHDQQPLGLTAFRGRTRGRWLWYCHVDPRYAVPEVWYFLAPMVATCDAAVFHLPEYARDLPVLQYFMPPAIDPLSDKLEHHHHHH”, for which the “soluble on expression in E. coli” value is reported as “soluble”.

Regarding “MIRRENRLRREFIFRKSLEEKQKSLEEKREKIRNALENNTKIDYNLRKDAIELAKGSDWGGQQYETDSEYRWAGAQDPKIVITTSRDPSSRLKMFAKEMKLIFPNAQRINRGHYDVKQVVQASKAQDSTDLIIFTETRGNPDGMLVCHLPFGPTAFFSMANVVMRHDIPNCGTMSEQYPHLIFDNLNSKLGHRFTTILKHLFPVPKPDSKRIITFSNSEDYISFRHHVYKTENDGEVELTEAGPRFELKPYQIKLGTLETLAAAEDEWVLRSYTNTARKRTFLSISRADDDE”, the “soluble on expression in E. coli” value is listed as “not soluble”.

For “MIRSSKRSLSRDLVRFVQYVDDCVVKRYGFVVKSGSGIKLNGKKPQGFGTSSEDEDNNADMSDDSEEVPVSSIDKRKVASSKSRTGVVIEGDVVKPPVMKFVVLDKNRNVCQVYGNRHDLTSSAEDDSVDGDEETLVMSRDNGRKQSLKARNGVSVKGGGGKTTRVVKTVSFDENGNVCKVYGDTHDLTSSAEDDDSVDVGEETLVMCRDEGKRRSSKTGSRVLVKGSGGKTNRVVKTVSFDENGNVYKAYGDTPESSIISEEDDSTSGSNEGNGEEKGNVNEVEEIKYVPKENESFEEEEEKETDSENEVSSSEGSEGDKRVTKKEVQHQKGSLMFSPPLPLKMEP”, the “soluble on expression in E. coli” value was “soluble”. With “MISIPVAQQQKLPRLVLPRVYGFPPNRETLGGTAYLIVENDGNTLIDSPPWTDGSQHWLREQGGVKRLILTHRGAIARVRAIQDTFDCEVMIHAQEAYLLPQVTVTPFNHHLAIGETLEILWTPGHSPGSACVYWSCQGGVLFTGRHLLPTPTGELAPIKTATTFHWPRQLRSVEALKAFCRQKSLSYLCPGANMGFLRGTLAIANAQAVLQGLSVDNLLCDKFLEHHHHHH”, the “soluble on expression in E. coli” value is reported as “not soluble”. Turning to “MISTRFLRPSVSIFGFGIKSSMSSRAPPKALLQDMVVPPRQLFGPGPSNMADSIAETQSRNLLGHLHPEFVQIMADVRLGLQYVFKTDNKYTFAVSGTGHSGMECAMVNLLEPGDKFLVVEIGLWGQRAADLANRMGIEVKKITAPQGQAVPVEDIRKAIADYKPNLVFVCQGDSSTGVAQPLETIGDACREHGALFLVDTVASLGGTPFAADDLKVDCVYSATQKVLNAPPGLAPISFSDRAMEKIRNRKQRVASFYFDAIELGNYWGCDGELKRYHHTAPISTVYALRAALSAIAKEGIDESIQRHKDNAQVLYATLKKHGLEPFVVDEKLRLPCLTTVKVPEGVDWKDVAGKMMTNGTEIAGGLGATVGKIWRIGTFGINSNSTKIENVVELLSKSIGEKSK”, the “soluble on expression in E. coli” value is reported as “not soluble”. Consider “MISVCIATYNGEKYLAEQLDSILLQVSEEDELIISDDGSTDHTLEILRTYAANYPQIQLLQGPGQGVIANFAFALTHTKGEVIFLADQDDVWLPNKVTTVTEYFETHPDIQVVISDLKIVDADLQVTNPSYFKFRKVKPGFWRNAIKSGYIGAGMAFRQEMKNVILPIPPEVPMHDMWIGLLAARKKQTGLIKEPLVLYRRHGANVSPIITKTSFQQKLNWRVNLLKALHQRLKEQRLEHHHHHH”, for which the “soluble on expression in E. coli” value is on record as “soluble”.

As to “MITHAQTILCLDLGSKTGWAICGADGHIFSGVMNFQPRRFEGGGMRYLRFKQWLTEMKMTARRIDAVYFEEVRRHVGTDAAHVYGGLLATLTAWCEHHQIPYEGIPVGTIKKETTGKGNASKEEMIKAVCAKGHAPKDDNEADALAILYLMKEGGVYVQ”, the “soluble on expression in E. coli” value is listed as “not soluble”.

For the sequence “MITILGPTACGKTRLAVSLAYRLETEIISADSRQIYRGMDIGTGKDLADYQVGGTTIPCHLIDIRPAGDKYNLFAYQHDFHQAYASILARGMDPILCGGTGMYIEAVLKGYHLPDVPPNPTLRDRLQGKSLTELTLILAAYGPLHNKTDVDSAQRAIRAIEIAEYIKNNPVESTEFPPIDSLIIGLDLDRDTRRKRITDRLHARMHEGMIEEVKGLLDSGIPAEDLIYYGLEYKFVTLYLTGQTDYESMFTGLETAIHQFAKRQMTWFRGMERRGFLIHWIDALLPADEQCEAVMKLYGANGLEHHHHHH”, the “soluble on expression in E. coli” value is reported as “soluble”.

As for “MITLAVDAMGGDQGLAVTVPGATAFLQAHPDVRLIMTGDETQLRQALTAAGAPMERIDICHTTQVVGMDEAPQSALKNKKDSSMRVAINQVKEGKAQAAVSAGNTGALMATARFVLKTIPGIERPAIAKFLPSDTDHVTLALDLGANVDCTSEQLAQFAVIGSELVHALHPQKGQPRVGLVNVGTEDIKGTDTVKQTYKLLQNSKLNFIGNIESNGILYGEADVVVADGFVGNVMLKTIEGAVKFMSGAIRREFQSNLFNKLAAVAALPALKGLKNKLDPRKFNGAILLGLRGIVIKSHGGTDETGFRYALEEAYHEAKSAGLSKIEQGVAEQLAALETAKAVQNENVGGL”, the “soluble on expression in E. coli” value is listed as “not soluble”.

As for “MITLPTGTKIWIIAGITDMRCGFNGLASKVQNTLKDDPFSGHIFVFRGRSGKMVKILWADRDGLCLFAKRLERGRFVWPVTREGKVHLTPAQLSMLLEGIAWPHPKRTERPGIRI”, the “soluble on expression in E. coli” value is given as “not soluble”.
